Test results as given in paper PMC3653069.

Molecular target: MutSα (MSH2 subunit);MutSα (MSH6 subunit) (human;human, UniProt P43246;P52701 1-934;1-1360, |)
Assay: EMSA

B1: rC/G (dsDNA)
DNA 1: CCAGACGTCTGTCGACGTTGGGAAGCTTGAG
DNA 2: CTCAAGCTTCCCAACGTCGACAGACGTCTGG
modifications: single ribocytidine at position 13 of strand 1 (rC opposite G)
  binding result: no binding
